Source: patent US11819531B2, “Multifunctional zwitterionic polymer conjugates” (Kodiak Sciences Inc., priority 2009, dated 2023)

Test system: Liver esterase from rabbit liver
Assay: Camptothecin release study from camptothecin grafted copolymer (esterase incubation, GPC at 370 nm)
Assay type: in vitro ADME
Details: copolymer approximately 10 mg/ml in Tris Buffer, pH=8.0, rabbit liver esterase, 37° C.
Description: Samples of camptothecin grafted copolymer were prepared at approximately 10 mg/ml in Tris Buffer, pH=8.0. Liver esterase from rabbit liver (Sigma-Aldrich E0887-IKU, Lot #061K74451) was added to the sample and the sample was incubated at 37° C. for up to 65 hours.
GPC analysis of the samples was made using an HPLC system consisting of a Waters Alliance 2995 with Waters 2410 Refractive Index Detector, Waters 2996 Photodiode Array Detector, and a Shodex Protein KW-803 column. The mobile phase used for the elution was phosphate buffered saline containing 10% absolute ethanol. The flow rate was set to 1 ml/min and the presence of camptothecin monitored at 370 nm. Ten microliter injections of the samples were made at each time point.

## Camptothecin PC-Copolymer [camptothecin grafted copolymer]
Time 0 h
  Camptothecin Released: 0.059 mg/mL
Time 1 h
  Camptothecin Released: 0.079 mg/mL
Time 2 h
  Camptothecin Released: 0.132 mg/mL
Time 3 h
  Camptothecin Released: 0.130 mg/mL
Time 4 h
  Camptothecin Released: 0.128 mg/mL
Time 17 h
  Camptothecin Released: 0.208 mg/mL
Time 26 h
  Camptothecin Released: 0.251 mg/mL
Time 41 h
  Camptothecin Released: 0.335 mg/mL
Time 65 h
  Camptothecin Released: 0.427 mg/mL
